Measurements as given in patent US6613746 (GENERAL HOSPITAL, dated 2003).

T1: ELAM-Rg, soluble ELAM-1-IgG1 chimera (ELAM-1 extracellular domain fused to hinge, CH2 and CH3 domains of … (human, UniProt P16581 22-556, limits assumed))
T1 construct: extracellular domain; Made in COS cells, recovered on protein A-agarose; appeared as disulfide-linked dimers; In adhesion assays it was captured on dishes coated with goat anti-human IgG; also called ELAM-1-Rg; ELAM-1-IgG1 fusion protein; not shown: human IgG1 hinge, CH2 and CH3 domains (genomic fragment of Aruffo et al., Cell 61:1303, 1990)
T1 sequence (looked up): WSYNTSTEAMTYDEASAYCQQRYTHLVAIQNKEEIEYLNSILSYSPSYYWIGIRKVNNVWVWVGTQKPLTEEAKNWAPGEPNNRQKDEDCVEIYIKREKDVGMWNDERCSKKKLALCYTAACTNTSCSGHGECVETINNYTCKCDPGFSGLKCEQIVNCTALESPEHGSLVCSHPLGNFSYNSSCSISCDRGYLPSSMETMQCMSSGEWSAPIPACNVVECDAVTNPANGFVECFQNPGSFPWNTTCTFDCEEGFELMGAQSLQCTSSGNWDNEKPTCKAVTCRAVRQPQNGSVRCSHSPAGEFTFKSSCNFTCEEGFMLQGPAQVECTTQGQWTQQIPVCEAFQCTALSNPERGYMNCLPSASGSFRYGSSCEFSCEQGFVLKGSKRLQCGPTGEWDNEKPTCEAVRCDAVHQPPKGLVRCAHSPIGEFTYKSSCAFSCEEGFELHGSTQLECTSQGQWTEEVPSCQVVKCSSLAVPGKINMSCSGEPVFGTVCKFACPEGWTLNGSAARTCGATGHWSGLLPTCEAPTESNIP

B1: bovine α1-acid glycoprotein fucosylated in vitro with amniotic fluid α(1,3)fucosyltransferase and GDP-fucose (other, UniProt Q3SZR3 19-202, looked up)
chain: QSPECANLMTVAPITNATMDLLSGKWFYIGSAFRNPEYNKSARAIQAAFFYLEPRHAEDKLITREYQTIEDKCVYNCSFIKIYRQNGTLSKVESDREHFVDLLLSKHFRTFMLAASWNGTKNVGVSFYADKPEVTQEQKKEFLDVIKCIGIQESEIIYTDEKKDACGPLEKQHEEERKKETEAS
modifications: N-linked glycans fucosylated in vitro (sialyl-Le^X determinants)
notes: Adsorbed to plastic or to microtiter wells; also called in vitro-fucosylated α1-acid glycoprotein; enzymatically-fucosylated α1-AGP
B2: ELAM-1 (form in this assay not stated) (receptor, UniProt P16581 22-556, looked up)
chain: T1 sequence (looked up)

Experiments:
[1] = biological target: T1, ELAM-Rg, soluble ELAM-1-IgG1 chimera …; test: solid phase: α1-AGP adsorbed to wells, ELAM-Rg at 1 µg/ml, radioiodinated goat anti-human IgG, gamma counter
Method: Amniotic fluid fucosyltransferase was isolated by affinity chromatography and evaluated for its ability to convert α_1-AGP into an ELAM-1 ligand as follows. α(1,3) fucosyltransferase was isolated from concentrated amniotic fluid by fetuin-agarose chromatography as previously described in Hanisch et al. (*Carbohydr. Res.* 178:23, 1988) and Mitsakos et al. (*Biol. Chem. Hoppe-Seyler* 369:661, 1988). 0.8 μCi GDP^14C-fucose (225 Ci/mole) and 100 μg of bovine α_1-AGP (Sigma, St. Louis, Mo.) were added to a reaction mix containing 25 mM Tris-HCl pH 7.0, 35 mM MgCl_2 and 1 mM ATP in a final volume of 120 μl. The reaction was allowed to proceed for 24 h. at 37°, at which time approximately 10% of the ^14C-labeled fucose had been incorporated into TCA-insoluble material. Unincorporated label was removed by centrifugal ultrafiltration (Centricon 10, Amicon, Danvers, Mass.). 20 μl of a 1:5 dilution of the labelled material, or 10 μl of a 1:5 dilution of a similarly constituted reaction mixture lacking labelled GDP-fucose, was adsorbed to plastic dishes (as described above) or to 96 well microtiter plates (Falcon 3911, Becton Dickinson, Oxnard, Calif.). […] Following washing, labelled antibody binding was measured in a gamma counter. Results shown in FIG. 9 are expressed as the mean±standard deviation of quadruplicate determinations and are representative of two independent experiments.

[2] = biological target: native constant domain of human IgG1 coexpressed with fucosyltransferase (human, UniProt P01857-1 99-330 = IgG part); test: not described

Binder | binding result [1] | binding result [2]
B1 | binds | 
B2 |  | no binding
